How the values were obtained:
[1] = target: T1, rHuman HGF R/c-MET/Fc Chimera, CF (R&D Systems Cat#358-MT/CF) (human, UniProt P08581 25-932); test: ECL (MSD multi-spot), antigen on plate, Fab 50 nM
T1 construct: Bought Fc chimera; also called HGF R/Fc; not shown: Fc of the bought chimera

[2] = target: T2, rHuman ErbB2/Fc Chimera, CF (R&D Systems Cat#1129-ER) (human, UniProt P04626 23-652); test: ECL (MSD multi-spot), antigen on plate, Fab 50 nM
T2 construct: Bought Fc chimera; also called HER2/neu; not shown: Fc of the bought chimera

[3] = target: T3, rHuman CD44/Fc Chimera, CF (R&D Systems Cat#3660-CD) (human, UniProt P16070 21-220); test: ECL (MSD multi-spot), antigen on plate, Fab 50 nM
T3 construct: Bought Fc chimera; not shown: Fc of the bought chimera

[4] = target: T4, rHuman Erythropoietin R/Fc Chimera, CF (R&D Systems Cat#963-ER) (human, UniProt P19235 25-250); test: ECL (MSD multi-spot), antigen on plate, Fab 50 nM
T4 construct: Bought Fc chimera; also called EPO R/Fc; Epo R; not shown: Fc of the bought chimera
T4 sequence: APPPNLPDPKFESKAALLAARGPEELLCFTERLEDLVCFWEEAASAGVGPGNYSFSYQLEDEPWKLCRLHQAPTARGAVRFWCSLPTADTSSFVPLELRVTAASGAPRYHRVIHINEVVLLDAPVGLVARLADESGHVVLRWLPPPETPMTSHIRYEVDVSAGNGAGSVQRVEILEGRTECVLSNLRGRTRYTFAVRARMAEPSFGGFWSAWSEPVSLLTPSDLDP

[5] = target: T5, rHuman IGF-1 sR (insulin-like growth factor-1 soluble receptor), CF (R&D Systems Cat#391-GR) (human, UniProt P08069 31-932); test: ECL (MSD multi-spot), antigen on plate, Fab 50 nM
T5 construct: Bought soluble receptor; also called IGF-R1

[6] = target: T6, rHuman P-Cadherin/Fc Chimera, CF (R&D Systems Cat#861-PC) (human, UniProt P22223 108-654); test: ECL (MSD multi-spot), antigen on plate, Fab 50 nM
T6 construct: Bought Fc chimera; also called CDH3; not shown: Fc of the bought chimera

[7] = target: T7, rHuman EGF R/Fc Chimera, CF (R&D Systems Cat#344-ER) (human, UniProt P00533 25-645); test: ECL (MSD multi-spot), antigen on plate, Fab 50 nM
T7 construct: Bought Fc chimera; also called ErbB-1; not shown: Fc of the bought chimera

[8] = target: T8, rHuman Notch-1/Fc Chimera, CF (R&D Systems Cat#3647-TK) (human, UniProt P46531 19-526); test: ECL (MSD multi-spot), antigen on plate, Fab 50 nM
T8 construct: Bought Fc chimera; not shown: Fc of the bought chimera

[9] = target: T9, Recombinant Human DLL4 (R&D Systems Cat#1506-D4/CF) (human, UniProt Q9NR61 27-524); test: ECL (MSD multi-spot), antigen on plate, Fab 50 nM
T9 construct: Bought recombinant protein; also called delta-like protein 4

[10] = target: T1, rHuman HGF R/c-MET/Fc Chimera, CF (R&D …); test: ECL (MSD multi-spot), antigen on plate, Fab 500 nM
[11] = target: T2, rHuman ErbB2/Fc Chimera, CF (R&D …); test: ECL (MSD multi-spot), antigen on plate, Fab 500 nM
[12] = target: T4, rHuman Erythropoietin R/Fc Chimera, CF …; test: ECL (MSD multi-spot), antigen on plate, Fab 500 nM
[13] = target: T5, rHuman IGF-1 sR (insulin-like growth …); test: ECL (MSD multi-spot), antigen on plate, Fab 500 nM
[14] = target: T10, rHuman Notch-1/Fc Chimera, CF (R&D Systems Cat#3647-TK) (human, UniProt P46531 19-526); test: ECL (MSD Multi-Spot) binding assay, antigen spotted on plate; Fab 60 nM; blank spot 237;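 note: blank spot per well as comparator with Hit at signal to blank ratio of 4 or more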
T10 construct: Bought Fc chimera; Fc part of the bought chimera not given

[15] = target: T11, Recombinant Human DLL4 (R&D Systems Cat#1506-D4/CF) (human, UniProt Q9NR61 27-524); test: as above
T11 construct: Bought recombinant protein; also called delta-like protein 4; rHuman DLL4

[16] = target: T12, rHuman P-Cadherin/Fc Chimera, CF (R&D Systems Cat#861-PC) (human, UniProt P22223 108-654); test: as above
T12 construct: Bought Fc chimera; also called CDH3; Fc part of the bought chimera not given

[17] = target: T13, rHuman CD44/Fc Chimera, CF (R&D Systems Cat#3660-CD) (human, UniProt P16070 21-220); test: as above
T13 construct: Bought Fc chimera; Fc part of the bought chimera not given

[18] = target: T14, rHuman Erythropoietin R/Fc Chimera, CF (R&D Systems Cat#963-ER) (human, UniProt P19235 25-250); test: as above
T14 construct: Bought Fc chimera; also called EPO R/Fc; Epo R; Fc part of the bought chimera not given
T14 sequence: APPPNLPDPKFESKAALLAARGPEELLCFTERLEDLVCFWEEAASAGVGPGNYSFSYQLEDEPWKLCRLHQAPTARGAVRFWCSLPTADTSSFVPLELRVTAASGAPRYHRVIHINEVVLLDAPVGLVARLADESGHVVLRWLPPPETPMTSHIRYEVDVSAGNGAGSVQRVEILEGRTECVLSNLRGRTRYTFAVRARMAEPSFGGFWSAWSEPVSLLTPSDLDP

[19] = target: T15, rHuman ErbB2/Fc Chimera, CF (R&D Systems Cat#1129-ER) (human, UniProt P04626 23-652); test: MSD ECL multi-spot plate, antigen immobilized; Fab 8 nM; blank spot 489;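 note: blank spot per well as comparator with Hit at signal to blank ratio of 4 or more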
T15 construct: Purchased Fc chimera; also called HER2/neu; not shown: Fc portion of the purchased chimera

B1: Fab VH1-46_IGHD6-6*01_IGHJ1*01_S102A_S103P_S104Y_H111Y & L6_IGKJ1*01 (Fab, V domains shown)
VH: QVQLVQSGAEVKKPGASVKVSCKASGYTFTSYYMHWVRQAPGQGLEWMGIINPSGGSTSYAQKFQGRVTMTRDTSTSTVYMELSSLRSEDTAVYYCAREEYAPYSAEYFQYWGQGTLVTVSS
VL: not shown
notes: Fab made in E. coli; The heavy chain also carries CH1 with Flag and His tags from Plasmid A, and the light chain carries kappa CL from Plasmid C
- ECL signal [1]: 312 ECL signal
- ECL signal [2]: 470 ECL signal
- ECL signal [3]: 345 ECL signal
- ECL signal [4]: 533 ECL signal
- ECL signal [5]: 399 ECL signal
- ECL signal [6]: 470 ECL signal
- ECL signal [7]: 489 ECL signal
- ECL signal [8]: 389 ECL signal
- ECL signal [9]: 201000 ECL signal
- ECL signal [10]: 841 ECL signal
- ECL signal [11]: 596 ECL signal
- ECL signal [12]: 1270 ECL signal
- ECL signal [13]: 747 ECL signal

B2: Fab VH6-1_IGHD3-3*01_IGHJ4*01 & V4-3_IGLJ4*01 (Fab, V domains shown)
VH: QVQLQQSGPGLVKPSQTLSLTCAISGDSVSSNSAAWNWIRQSPSRGLEWLGRTYYRSKWYNDYAVSVKSRITINPDTSKNQFSLQLNSVTPEDTAVYYCAREYYDFWSGYYTDYFDYWGQGTLVTVSS
VL: QPVLTQPTSLSASPGASARLTCTLRSGINLGSYRIFWYQQKPESPPRYLLSYYSDSSKHQGSGVPSRFSGSKDASSNAGILVISGLQSEDEADYYCMIWHSSASFVFGGGTQLIIL
notes: Tested as a Fab made in E. coli; also called IGHV6-1*01
- ECL signal [14]: 415
- ECL signal [15]: 875
- ECL signal [16]: 372
- ECL signal [17]: 434
- ECL signal [18]: 423

B3: Fab VH5-51_IGHD5-18*01>3_IGHJ4*01_G100K & V3-4_IGLJ1*01 (Fab, V domains shown)
VH: EVQLVQSGAEVKKPGESLKISCKGSGYSFTSYWIGWVRQMPGKGLEWMGIIYPGDSDTRYSPSFQGQVTISADKSISTAYLQWSSLKASDTAMYYCARRKYSYGYDYFDYWGQGTLVTVSS
VL: QTVVTQEPSFSVSPGGTVTLTCGLSSGSVSTSYYPSWYQQTPGQAPRTLIYSTNTRSSGVPDRFSGSILGNKAALTITGAQADDESDYYCVLYMGSGISYVFGTGTKVTVL
notes: It was expressed as a Fab: CH1 with tags from Plasmid A and lambda CL from Plasmid E; also called Fab No. 22
- ECL signal [19]: 1230 ECL signal

From patent publication US20120058906A1 (published 2012)
